Experimental data as given in publication PMC10397247.

What was measured:
4H3817-bA = target: T1, 4H3817-bA; test: two-hybrid library CCNG1;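 also: natural log of median RNA to DNA barcode read ratio; higher means stronger binding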
T1 chain: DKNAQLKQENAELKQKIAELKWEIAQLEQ

4H3858-bA = target: T2, 4H3858-bA; test: two-hybrid library CCNG1;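 also: natural log of median RNA to DNA barcode read ratio; higher means stronger binding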
T2 chain: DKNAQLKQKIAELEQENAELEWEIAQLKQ

4H3974-bA = target: T3, 4H3974-bA; test: two-hybrid library CCNG1;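 also: natural log of median RNA to DNA barcode read ratio; higher means stronger binding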
T3 chain: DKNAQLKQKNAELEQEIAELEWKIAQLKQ

4H570-bA = target: T4, 4H570-bA; test: two-hybrid library CCNG1;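 also: natural log of median RNA to DNA barcode read ratio; higher means stronger binding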
T4 chain: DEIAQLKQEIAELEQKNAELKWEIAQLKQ

4H584-bA = target: T5, 4H584-bA; test: two-hybrid library CCNG1;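 also: natural log of median RNA to DNA barcode read ratio; higher means stronger binding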
T5 chain: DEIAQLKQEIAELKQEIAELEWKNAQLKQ

4H619-bA = target: T6, 4H619-bA; test: two-hybrid library CCNG1;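 also: natural log of median RNA to DNA barcode read ratio; higher means stronger binding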
T6 chain: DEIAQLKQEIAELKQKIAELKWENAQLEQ

4H850-bA = target: T7, 4H850-bA; test: two-hybrid library CCNG1
T7 chain: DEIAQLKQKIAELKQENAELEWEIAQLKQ

4H906-bA = target: T8, 4H906-bA; test: two-hybrid library CCNG1
T8 chain: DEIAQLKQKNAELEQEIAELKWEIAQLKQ

4H3638-bN = target: T9, 4H3638-bN; test: two-hybrid library CCNG1
T9 chain: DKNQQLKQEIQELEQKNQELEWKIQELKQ

4H3817-bN = target: T10, 4H3817-bN; test: two-hybrid library CCNG1
T10 chain: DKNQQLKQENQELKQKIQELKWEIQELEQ

4H3974-bN = target: T11, 4H3974-bN; test: two-hybrid library CCNG1
T11 chain: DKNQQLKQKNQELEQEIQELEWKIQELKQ

4H570-bN = target: T12, 4H570-bN; test: two-hybrid library CCNG1
T12 chain: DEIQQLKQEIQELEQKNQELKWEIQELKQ

4H584-bN = target: T13, 4H584-bN; test: two-hybrid library CCNG1
T13 chain: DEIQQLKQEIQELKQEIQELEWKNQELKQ

4H619-bN = target: T14, 4H619-bN; test: two-hybrid library CCNG1
T14 chain: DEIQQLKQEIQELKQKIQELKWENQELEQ

4H850-bN = target: T15, 4H850-bN; test: two-hybrid library CCNG1
T15 chain: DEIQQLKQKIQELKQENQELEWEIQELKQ

4H906-bN = target: T16, 4H906-bN; test: two-hybrid library CCNG1
T16 chain: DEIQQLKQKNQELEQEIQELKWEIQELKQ

4H953-bH = target: T17, 4H953-bH; test: two-hybrid library CCNG1
T17 chain: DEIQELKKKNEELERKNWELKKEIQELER

O7-AA = target: T18, O7-AA; test: two-hybrid library CCmax
T18 chain: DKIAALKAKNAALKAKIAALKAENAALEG

O8-AA = target: T19, O8-AA; test: two-hybrid library CCmax; settings: mean of both orientations
T19 chain: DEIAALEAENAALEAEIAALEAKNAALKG

P10-AA = target: T20, P10-AA; test: two-hybrid library CCmax; settings: mean of both orientations
T20 chain: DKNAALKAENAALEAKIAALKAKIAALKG

P9-AA = target: T21, P9-AA; test: two-hybrid library CCmax; settings: mean of both orientations
T21 chain: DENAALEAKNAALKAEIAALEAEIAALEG

4H278-AA = target: T22, 4H278-AA; test: two-hybrid library CCmax
T22 chain: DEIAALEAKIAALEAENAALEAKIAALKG

4H2873-AA = target: T23, 4H2873-AA; test: two-hybrid library CCmax; settings: mean of both orientations
T23 chain: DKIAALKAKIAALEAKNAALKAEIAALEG

4H2985-AA = target: T24, 4H2985-AA; test: two-hybrid library CCmax; settings: mean of both orientations
T24 chain: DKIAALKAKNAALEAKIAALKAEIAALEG

4H3134-AA = target: T25, 4H3134-AA; test: two-hybrid library CCmax; settings: mean of both orientations
T25 chain: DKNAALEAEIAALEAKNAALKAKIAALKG

4H3409-AA = target: T26, 4H3409-AA; test: two-hybrid library CCmax; settings: mean of both orientations
T26 chain: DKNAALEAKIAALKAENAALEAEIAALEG

4H3625-AA = target: T27, 4H3625-AA; test: two-hybrid library CCmax; settings: mean of both orientations
T27 chain: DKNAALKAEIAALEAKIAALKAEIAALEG

4H390-AA = target: T28, 4H390-AA; test: two-hybrid library CCmax; settings: mean of both orientations
T28 chain: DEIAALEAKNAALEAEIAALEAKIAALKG

4H3940-AA = target: T29, 4H3940-AA; test: two-hybrid library CCmax; settings: mean of both orientations
T29 chain: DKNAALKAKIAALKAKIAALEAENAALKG

4H510-AA = target: T30, 4H510-AA; test: two-hybrid library CCmax; settings: mean of both orientations
T30 chain: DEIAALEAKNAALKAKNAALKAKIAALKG

4H775-AA = target: T31, 4H775-AA; test: two-hybrid library CCmax
T31 chain: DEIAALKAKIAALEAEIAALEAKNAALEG

4H816-AA = target: T32, 4H816-AA; test: two-hybrid library CCmax; settings: mean of both orientations
T32 chain: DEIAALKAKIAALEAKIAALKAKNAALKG

4H87-AA = target: T33, 4H87-AA; test: two-hybrid library CCmax; settings: mean of both orientations
T33 chain: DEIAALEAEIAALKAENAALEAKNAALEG

4H3613-bA = target: T34, 4H3613-bA; test: two-hybrid library CCNG1
T34 chain: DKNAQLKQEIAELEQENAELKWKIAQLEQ

4H3628-bA = target: T35, 4H3628-bA; test: two-hybrid library CCNG1
T35 chain: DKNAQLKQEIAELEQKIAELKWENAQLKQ

4H3926-bA = target: T36, 4H3926-bA; test: two-hybrid library CCNG1
T36 chain: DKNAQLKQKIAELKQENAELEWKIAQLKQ

4H591-bA = target: T37, 4H591-bA; test: two-hybrid library CCNG1
T37 chain: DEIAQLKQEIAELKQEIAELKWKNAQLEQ

4H626-bA = target: T38, 4H626-bA; test: two-hybrid library CCNG1
T38 chain: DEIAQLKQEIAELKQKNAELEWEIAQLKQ

4H3631-bA = target: T39, 4H3631-bA; test: two-hybrid library CCNG1
T39 chain: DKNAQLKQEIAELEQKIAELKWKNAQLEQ

4H3638-bA = target: T40, 4H3638-bA; test: two-hybrid library CCNG1
T40 chain: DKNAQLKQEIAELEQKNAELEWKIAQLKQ

P6SC1 = target: T41, P6SC1; test: two-hybrid library CC1
T41 chain: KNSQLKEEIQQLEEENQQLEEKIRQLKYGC

P6SC2 = target: T42, P6SC2; test: two-hybrid library CC1; settings: mean of both orientations
T42 chain: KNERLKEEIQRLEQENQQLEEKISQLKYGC

P6mS = target: T43, P6mS; test: two-hybrid library CC1; settings: mean of both orientations
T43 chain: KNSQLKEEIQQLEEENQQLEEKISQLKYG

P7 = target: T44, P7; test: two-hybrid library CC1; settings: mean of both orientations
T44 chain: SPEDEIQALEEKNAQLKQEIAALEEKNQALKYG

P7mS = target: T45, P7mS; test: two-hybrid library CC1; settings: mean of both orientations
T45 chain: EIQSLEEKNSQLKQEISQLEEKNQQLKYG

P8 = target: T46, P8; test: two-hybrid library CC1; settings: mean of both orientations
T46 chain: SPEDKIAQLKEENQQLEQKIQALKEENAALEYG

P8mS = target: T47, P8mS; test: two-hybrid library CC1; settings: mean of both orientations
T47 chain: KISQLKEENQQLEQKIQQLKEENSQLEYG

P9 = target: T48, P9; test: two-hybrid library CC1; settings: mean of both orientations
T48 chain: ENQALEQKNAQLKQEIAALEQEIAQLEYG

4H3497-bN = target: T49, 4H3497-bN; test: two-hybrid library CCNG1
T49 chain: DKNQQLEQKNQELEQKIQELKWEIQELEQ

4H3613-bN = target: T50, 4H3613-bN; test: two-hybrid library CCNG1
T50 chain: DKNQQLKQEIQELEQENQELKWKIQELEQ

4H3628-bN = target: T51, 4H3628-bN; test: two-hybrid library CCNG1
T51 chain: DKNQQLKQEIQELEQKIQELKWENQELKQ

4H3926-bN = target: T52, 4H3926-bN; test: two-hybrid library CCNG1
T52 chain: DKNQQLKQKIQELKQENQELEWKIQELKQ

4H591-bN = target: T53, 4H591-bN; test: two-hybrid library CCNG1
T53 chain: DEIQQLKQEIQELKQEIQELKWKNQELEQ

4H626-bN = target: T54, 4H626-bN; test: two-hybrid library CCNG1
T54 chain: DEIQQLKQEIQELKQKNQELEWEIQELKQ

## DKNAQLKQENAELKQKIAELKWEIAQLEQ [4H3817-bA]
4H3817-bA
  interaction score: -0.506
4H3858-bA
  interaction score: -1.18
4H3974-bA
  interaction score: 1.27
4H570-bA
  interaction score: -1.2
4H584-bA
  interaction score: -1.24
4H619-bA
  interaction score: -1.25
4H850-bA
  interaction score: -0.849
4H906-bA
  interaction score: -0.916

## DKNQQLKQEIQELEQKNQELEWKIQELKQ [4H3638-bN]
4H3638-bN
  interaction score: 0.732
4H3817-bN
  interaction score: -0.442
4H3974-bN
  interaction score: -0.469
4H570-bN
  interaction score: 0.408
4H584-bN
  interaction score: 0.234
4H619-bN
  interaction score: -1.26
4H850-bN
  interaction score: 0.801
4H906-bN
  interaction score: -0.17
4H953-bH
  interaction score: -2.56

## DKIAALKAKNAALKAKIAALKAENAALEG [O7-AA]
O7-AA
  interaction score: -1.65
O8-AA
  interaction score: 2.12
P10-AA
  interaction score: -1.18
P9-AA
  interaction score: -1.37

## DEIAALEAKIAALEAENAALEAKIAALKG [4H278-AA]
4H278-AA
  interaction score: 1.38
4H2873-AA
  interaction score: 1.66
4H2985-AA
  interaction score: 1.94
4H3134-AA
  interaction score: 1.9
4H3409-AA
  interaction score: 0.702
4H3625-AA
  interaction score: 1.32
4H390-AA
  interaction score: 1.6
4H3940-AA
  interaction score: 0.936
4H510-AA
  interaction score: 1.09
4H775-AA
  interaction score: -1.16
4H816-AA
  interaction score: 0.427
4H87-AA
  interaction score: -1.44

## DKNAQLKQEIAELEQENAELKWKIAQLEQ [4H3613-bA]
4H3613-bA
  interaction score: -0.128
4H3628-bA
  interaction score: -0.292
4H3817-bA
  interaction score: -0.898
4H3858-bA
  interaction score: -0.117
4H3926-bA
  interaction score: 2.15
4H3974-bA
  interaction score: -0.83
4H570-bA
  interaction score: -0.148
4H591-bA
  interaction score: -0.523
4H626-bA
  interaction score: -0.846
4H850-bA
  interaction score: 0.586
4H906-bA
  interaction score: -0.971

## DKNAQLKQEIAELEQKIAELKWKNAQLEQ [4H3631-bA]
4H3631-bA
  interaction score: 0.816
4H3638-bA
  interaction score: -0.00348
4H3817-bA
  interaction score: 0.452
4H3974-bA
  interaction score: 0.937
4H570-bA
  interaction score: -0.919
4H584-bA
  interaction score: 0.0123
4H619-bA
  interaction score: -0.0328
4H850-bA
  interaction score: -0.369
4H906-bA
  interaction score: -0.872

## KNSQLKEEIQQLEEENQQLEEKIRQLKYGC [P6SC1]
P6SC1
  interaction score: -2.56
P6SC2
  interaction score: -2.43
P6mS
  interaction score: -2.87
P7
  interaction score: -0.456
P7mS
  interaction score: -2.22
P8
  interaction score: -2.12
P8mS
  interaction score: -2.55
P9
  interaction score: -1.54

## DKNQQLEQKNQELEQKIQELKWEIQELEQ [4H3497-bN]
4H3497-bN
  interaction score: -1.39
4H3613-bN
  interaction score: -1.36
4H3628-bN
  interaction score: -0.414
4H3926-bN
  interaction score: -1.9
4H591-bN
  interaction score: -0.818
4H626-bN
  interaction score: -2.23
4H906-bN
  interaction score: -0.915
